Experimental findings from patent US20170336407A1 are described below.

Assay in all cases: cell-based or functional assay
For experiment [1], the target named is Fusarium graminearum fungal pheromone GPCR (Fusarium graminearum).
Experiment [2] deals with Magnaporthe oryzea fungal pheromone GPCR (Magnaporthe oryzea).
In experiment [3] the target is T1, Candida albicans fungal pheromone GPCR (Candida albicans).
T1 sequence: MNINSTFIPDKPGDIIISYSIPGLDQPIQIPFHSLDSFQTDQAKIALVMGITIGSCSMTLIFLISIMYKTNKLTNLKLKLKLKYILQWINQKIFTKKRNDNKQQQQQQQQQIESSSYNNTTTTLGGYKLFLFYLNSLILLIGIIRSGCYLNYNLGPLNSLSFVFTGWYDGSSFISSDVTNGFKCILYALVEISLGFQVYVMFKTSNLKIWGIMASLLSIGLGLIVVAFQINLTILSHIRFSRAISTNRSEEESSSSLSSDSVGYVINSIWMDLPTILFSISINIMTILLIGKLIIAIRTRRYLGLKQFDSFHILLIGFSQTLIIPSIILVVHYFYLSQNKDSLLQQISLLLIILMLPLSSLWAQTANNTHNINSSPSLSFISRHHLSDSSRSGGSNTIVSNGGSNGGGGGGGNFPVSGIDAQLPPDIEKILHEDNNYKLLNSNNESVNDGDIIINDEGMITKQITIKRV

In experiment [4] the target is T2, Candida glabrata fungal pheromone GPCR (Candida glabrata).
T2 sequence: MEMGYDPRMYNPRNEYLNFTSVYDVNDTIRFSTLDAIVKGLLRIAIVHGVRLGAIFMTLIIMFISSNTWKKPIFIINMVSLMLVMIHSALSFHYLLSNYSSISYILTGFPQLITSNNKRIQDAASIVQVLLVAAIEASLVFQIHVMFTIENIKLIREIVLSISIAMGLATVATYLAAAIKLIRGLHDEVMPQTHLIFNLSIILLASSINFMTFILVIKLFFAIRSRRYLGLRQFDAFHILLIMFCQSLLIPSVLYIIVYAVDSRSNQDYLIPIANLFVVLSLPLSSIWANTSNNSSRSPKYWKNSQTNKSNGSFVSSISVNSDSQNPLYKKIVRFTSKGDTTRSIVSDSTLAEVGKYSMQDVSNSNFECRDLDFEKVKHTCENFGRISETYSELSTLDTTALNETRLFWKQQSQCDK

Experiment [5] addresses T3, Botrytis cinerea fungal pheromone GPCR (Botrytis cinerea).
T3 sequence: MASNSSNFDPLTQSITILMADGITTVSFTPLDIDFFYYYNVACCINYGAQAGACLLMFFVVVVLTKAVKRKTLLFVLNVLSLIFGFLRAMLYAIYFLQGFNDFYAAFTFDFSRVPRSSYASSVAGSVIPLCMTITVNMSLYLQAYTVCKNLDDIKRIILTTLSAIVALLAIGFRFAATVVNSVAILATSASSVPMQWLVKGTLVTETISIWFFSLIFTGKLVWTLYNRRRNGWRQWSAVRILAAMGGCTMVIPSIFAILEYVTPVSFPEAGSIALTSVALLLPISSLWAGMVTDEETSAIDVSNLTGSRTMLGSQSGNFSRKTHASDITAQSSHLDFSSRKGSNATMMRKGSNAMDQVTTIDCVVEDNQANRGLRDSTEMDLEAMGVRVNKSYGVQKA

For experiment [6], the target named is T4, Saccharomyces cerevisiae Ste2 pheromone receptor, wild type (Saccharomyces cerevisiae) (UniProt D6VTK4).
T4 sequence: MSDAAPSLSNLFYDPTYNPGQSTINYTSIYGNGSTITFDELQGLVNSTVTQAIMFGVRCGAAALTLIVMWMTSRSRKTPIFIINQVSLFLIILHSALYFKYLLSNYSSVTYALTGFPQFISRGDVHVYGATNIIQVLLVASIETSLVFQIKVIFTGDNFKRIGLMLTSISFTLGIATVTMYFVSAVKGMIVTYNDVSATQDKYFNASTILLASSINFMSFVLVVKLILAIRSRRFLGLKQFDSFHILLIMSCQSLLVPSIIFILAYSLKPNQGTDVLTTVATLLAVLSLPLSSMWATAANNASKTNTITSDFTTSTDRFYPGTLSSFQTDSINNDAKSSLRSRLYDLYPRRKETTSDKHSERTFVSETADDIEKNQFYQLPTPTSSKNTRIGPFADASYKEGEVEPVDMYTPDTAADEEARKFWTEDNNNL

The target in experiment [7] is Paracoccidioides brasiliensis fungal pheromone GPCR (Paracoccidioides brasiliensis).
Experiment [8] deals with T5, Lodderomyces elongisporous fungal pheromone GPCR (Lodderomyces elongisporous).
T5 sequence: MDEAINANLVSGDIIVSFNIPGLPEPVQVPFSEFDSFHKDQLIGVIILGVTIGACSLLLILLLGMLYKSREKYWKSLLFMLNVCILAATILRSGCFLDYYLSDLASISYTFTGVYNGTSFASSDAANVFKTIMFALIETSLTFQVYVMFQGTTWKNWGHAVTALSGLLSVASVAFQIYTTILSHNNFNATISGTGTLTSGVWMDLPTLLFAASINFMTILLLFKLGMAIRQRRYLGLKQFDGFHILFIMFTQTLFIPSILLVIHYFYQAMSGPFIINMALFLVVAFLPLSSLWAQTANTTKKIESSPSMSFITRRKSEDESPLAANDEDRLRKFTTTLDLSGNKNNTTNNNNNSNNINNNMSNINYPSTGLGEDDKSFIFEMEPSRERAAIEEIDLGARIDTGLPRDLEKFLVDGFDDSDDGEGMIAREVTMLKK

On to “Fusarium graminearum mating peptide pheromone […]”, for which the EC50 (fluorescent reporter) in experiment [1] was determined as 230 nM.
For “Magnaporthe oryzea mating peptide pheromone […]”, the EC50 (fluorescent reporter) in experiment [2] was 5000 nM.
In experiment [3], “Candida albicans mating peptide pheromone …” displayed an EC50 (biosensor strain, fluorescence) of 4 nM and an EC50 (fluorescent reporter) of 51 nM.
“Candida glabrata mating peptide pheromone …” displayed an EC50 (biosensor strain, fluorescence) in experiment [4] of 3600 nM.
In turn, “Botrytis cinerea mating peptide pheromone …” displayed an EC50 (fluorescent reporter) in experiment [5] of under 1 nM.
“S. cerevisiae α-Factor, wild type, … (peptide)” gave an EC50 (biosensor strain, fluorescence) in experiment [6] of 190 nM.
As to “Paracoccidioides brasiliensis mating peptide […]”, in experiment [7], the EC50 (biosensor strain, fluorescence) worked out at 34 nM and the EC50 (fluorescent reporter) came to 9 nM.
In turn, “Lodderomyces elongisporous mating peptide pheromone …” had an EC50 (biosensor strain, fluorescence) in experiment [8] of 51 nM.
